Reference: a protein production outcome set (Wang et al. 2014)

Assay: label from the status in PepcDB records
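Further: failed if final PepcDB status was selected cloned or expressed and not failed if soluble or beyond.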

Sequence | protein production
MEYGFWLPIFGGWLRNVNDESMPPTFEYAKQTAQAAEQLGFSTTLIAELNLNDIKGVSAPSLEAWTTAAALAAVTDRLEIMTAVRPGFHNPAVTAKMAANIDQLSNGRFTLNVVSAWWEEEAKQYGGVFTAHDERYDRTEEFVTILKGLWKEEEFSYKGNFYELHHTHLSPKPVQKQGIKLYAGGESKRGKEVIVNHADAYVMHGGTVEEVSVKIEDMKNRRKKVTEEPLQSFGLAAYVICRHTEEEALEEWRRITDVKDDALGYAGYQDFVSKSQLEQQVKLNDYSVSNRGLRPNLIGTPEQIAERILAFEKVGVTLLLLQFSPQLEEMKRFSEKVMPLVEAKRKELIT | not failed
MEYKKFVEARRELNEKVLSRGTLNTKRFFNLDSAVYRPGKLDVKTKELMGLVASTVLRCDDCIRYHLVRCVQEGASDEEIFEALDIALVVGGSIVIPHLRRAVGFLEELREMEKNGETISL | not failed
MEYNRNFFIAIGLSFGVLIAWHFFYVAPKQTELQQKQLIAQQLLKQQSAVSSPTANFSDSASTHESALIINHPMSPEIRDAELAKTNRVAIKTNELEGSINLVGAQFDDLLLKKYRLTVDKKSSEIALLNPKGFKETYLAEFGFTSSSLSKDALPQSDTRWHIEGNNTTLTPSTPVTLIYNNGQGQTFRRILSIDDHYMFTIEDSITNESDKPIYLSSYARVARAAPPEHTNATYLLHEGMIGIAGDSLKTEKYKTLAELNPNPDNGQKSMTFSKVIGGWVGITDKYWAVAVIPPQDKEYTSRFIYFDRLQTHYQSDLLGSLLTVAPNETKTITNRLFAGAKQVEIINHYQNDLKIKKFALLIDWGWFDFITKPMFSLIDILYKQTGNFGIAILLVTVLLKTLLFPLANKSYKSMARMKLIQPMLLEIKEKYPEDRTKQQQAIIELYKTQKINPLAGCWPMLVQFPIFFALYKVLYITIEMRHAPFFGWIQDLAAPDPTSLFNLFGLLPYTVPAFLMLGAWPLIMGITMFLQMRMNPAPQDQTQAMIFAWMPIVFTFMLASFPVGLVIYWAWNNILSMIQQGIMMKRQGVKIELFDNLKAMWRKSPKKEAHE | failed
MEYSFYDFLKLIGSLGLFLYGMKIMSEGLQKVAGDRLRGILTAMTTNRVTGVLTGVLITALIQSSSATTVMVVSFVNAGLLTLAESISVIMGANIGTTVTAWIISIFGFKVDMAAFALPLLAIALPLIFSGKSNRKSIGEFIFGFSFLFMGLSYLKANAPDLNANPEMLAFVQNYTDMGFFSVLLFLFIGTILTMIVQASAATMAITLIMCANGWISLELGAALVLGENIGTTITANLAALTANSQAKRAALAHFVFNVFGVIWVLIIFHPFMVFVNWVVDTFFHPGSAEVAISYKLSAFHSIFNICNVCLLIWGVKLIERTVCAIIRPKEEDEEPRLRFITGGMLSTAELSILQARKEIHLFSERIHRMFGMVQDLLHTEKDDDFNKLFSRIEKYENISDNMELEIANYLNQVSEGRLSSESKLQIRAMLREVTEIESIGDSCYNLARTISRKRQTNQDFTEKQYEHIHFMMKLTNDALSQMIVVVEKPEHQSIDVNKSFNIENEINNYRNQLKNQNILDVNNKEYDYQMGVYYMDIIAECEKLGDYVVNVVEASSDVKEKKAS | failed
MEYYNLILYLLVFGADMLIILQTYNEIKMWKTVKGNFVGKVSIIVPIKGIDTRLERNIESLLSQDYPYPYEVIYVVEKGDEVENILKKYNVKIVYSDFNCDSCSGKIRAQISGLLRASNDIIVFADSDTWYPRYWLRNLISPLDKYDTTTTFSWPFPSRITLSNLIRAGFWTLGFESQSLQSSRFLWGGSMALRREFFDNEVLDELSKEWCDDCTLTRIIKRRGGKIGFVMSAIPLNVYDENSLISWSSRQIITILAYSPRGARAYLVAGTFFALILIYSLVYLNIVTFTPYILWIVKNVIRGVKYPKQALIASLMTILAIPYALFLLVFNWNRREVYWRGKRYIVKPLREK | failed
MFAAAVSFVALLLFTIGLYGVMTSRVGIKMLISIEIMINSAILSIIGIGSYFYSSSVQIDPYVFALFAIAIGVVESAVGLGLLVIVYRKFGKIDISLLKEIRW | failed
MFAHQNASFPPRPEGRGGKEAVFRLTVFCIITFSSLICEAMKRAYKYRFYPTTEQAELLAQTFGCVRFVYNSILRWRTDAYYERKEKIGYLQANARLTALKKEPEFAWLNDVSCVPLQQSLRHQQTAFANFFAGRAAYPAFKSKRHKQAAEFTASAFKYRDGKLYMAKNKIPLDVRWSRPLPSVPSTVTISKDAAGRYFVSCLCEFEPASLPITSSMVGIDVGLKDLFVTDTGFRSGNPRHTAKYAARLALLQRRLSKKAKGSKNRAKAHLKVARLHAKIADCRLDALHKATRKLINDNQVVCVESLKVRNMIRNPSLSKAIADASWGELVRQLRYKGEWAGRSVVAIDQFFPSSKRCSCCGFIMKKMPLDVRKWQCPECGTDHDRDVNAARNIKAAGLAVLAHGEPVNPESLKAALEHHHHHH | failed
MFALCDVNAFYASCETVFRPDLWGKPVVVLSNNDGCVIARNAEAKALGVKMGDPWFKQKDLFRRCGVVCFSSNYELYADMSNRVMSTLEELSPRVEIYSIDEAFCDLTGVRNCRDLTDFGREIRATVLQRTHLTVGVGIAQTKTLAKLANHAAKKWQRQTGGVVDLSNLERQRKLMSALPVDDVWGIGRRISKKLDAMGIKTVLDLADTDIRFIRKHFNVVLERTVRELRGEPCLQLEEFAPTKQEIICSRSFGERITDYPSMRQAICSYAARAAEKLRSEHQYCRFISTFIKTSPFALNEPYYGNSASVKLLTPTQDSRDIINAATRSLDAIWQAGHRYQKAGVMLGDFFSQGVAQLNLFDDNAPRPGSEQLMTVMDTLNAKEGRGTLYFAGQGIQQQWQMKRAMLSPRYTTRSSDLLRVK | failed
MFALEELPRIPDFTERAICELFELYASIESVQLPPQSSDATNSSSATAPGNIFSAERGPRYLGPRALVRFFTELGVDMRSLAALAFAWLGRWQYPCHCREEGFARGVRYALWALDRRQHNEPRRWEQVQATCSTLLETSIWPRESTALFERLRSAFPDAVLSYTQRSAEAALDFYLFAFDLNRQSPYRRSLSLTDARYLWKQFLSESCYLATPASPGTPAGVANQPWRYLEHFDAYLESRCGMAGTIISRDTWYWVLMFARETQVAGSSFFANYNQGDAWPVLLDGFVEYLRENKLLSS | not failed
MFALVLAAGRSRRFDGDKRKALLPCGRTLLTACLETAGKVFTETGVVLREDDEVQTLGIPSKVTIIRCKHADLGMGHSLAAGIAAALNSSADAVAILLADMPWIEPQTLRDLARLADPQRIALPMHEGQRGHPVIIGRRFWPRLLALEGDQGAKALITNNPAFCDVMNCDDPGVLRDADTRSALAIACRQHLTAGRDLEHHHHHH | failed
MFANKILTEKDTDQIRFSILASGSSGNATLVETGDQKILIDCGLSGKKMEGLFAQVGRDMNDLDAILITHEHSDHIKGLGVLARKYKLPIYANAKTWKAMDNMIGEVSSDQKFQFDMETVKNFGSMQVESFGVSHDAIEPMFYIFHKGNKKFVMITDTGYVSDRMKGHIAGADAYLFESNHDVEMLRMGRYPWNVKRRILGDEGHVSNEDAAIAMSEVITDQTKRIYLGHLSKDNNMKELARMSVTQTLMAEGIDVGGKLEIFDTDPDNATSIFTILEHHHHHH | failed
MFASCHCVPRGRRTMKMIHFRSSSVKSLSQEMRCTIRLLDDSEISCHIQRETKGQFLIDHICNYYSLLEKDYFGIRYVDPEKQRHWLEPNKSIFKQMKTHPPYTMCFRVKFYPHEPLKIKEELTRYLLYLQIKRDIFHGRLLCSFSDAAYLGACIVQAELGDYDPDEHPENYISEFEIFPKQSQKLERKIVEIHKNELRGQSPPVAEFNLLLKAHTLETYGVDPHPCKDSTGTTTFLGFTAAGFVVFQGNKRIHLIKWPDVCKLKFEGKTFYVIGTQKEKKAMLAFHTSTPAACKHLWKCGVENQAFYKYAKSSQIKTVSSSKIFFKGSRFRYSGKVAKEVVEASSKIQREPPEVHRANITQSRSSHSLNKQLIINMEPLQPLLPSPSEQEEELPLGEGVPLPKEENISAPLISSSPVKAAREYEDPPSEEEDKIKEEPLTISELVYNPSASLLPTPVDDDEIDMLFDCPSRLELEREDTDSFEDLEADENAFLIAEEEELKEARRALSWSYDILTGHIRVNPLVKSFSRLLVVGLGLLLFVFPLLLLLLESGIDLSFLCEIRQTPEFEQFHYEYYCPLKEWVAGKVHLILYMLGCS | failed
MFCGRFANFIMRDVINFIKKYNNFVIIGHKDPDFDCIGSSLALSSFLSRIGKNSILLNEGPFIRKEIVPFKDKFLSEWPNIEISEYSVIILDCSILDRIGDEFIFYVKNMPTLVIDHHMSGEKLECEGYIDPFAPSTTFLIEKLIREFGHDLTKEEAWYILVGFCTDTGFFKFISRSDPEPFEMVARLVSKGISLKEVYSYIETTKSLKSIETLKLMLNSLESYWNGKVLFTFLSSSSSGKDGGVSGVNELFYMILSNVENNEILGILKEMEDGSIIVGLRSKDSFDVGKLAEDFGGGGHKNASGFRIKQGSLEIVKNRMLAYIKDNIYLLEHHHHHH | failed
MFDATRAAFLGVAVFISVLLVASFFSPTPGRAVEPAPAGAPAQEGSLPHDGLGSIKPIHDVDLGGVEQPPLPAPVDPDPSFNPQPPFAPGELREGFVDVGNGNIRRYLIHVGTNYQPHAPELTPVVFGFGGWKDTPEKFADYSRFGLTDFGANAMIIYPEGIARAWEGAPYAATRVGDDVHFVRTILNAVDADYRIDRSRVYAVGMSNGGGMAASLACHAPDLVAGVVSVSAAYYEPVVADCAPGAVATLDIHGTHDEVIAYQGGMRHGAPFLGAEQVVAGVAARNGCGPALPPRWIEGPAEHYGFAGCAAPVEHVRVLGQKHVWNGVPHATTLAWEFLHHQHK | failed
MFDNLTDRLSRTLRNISGRGRLTEDNVKDTLREVRMALLEADVALPVVREFINRVKEKAVGHEVNKSLTPGQEFVKIVRNELVAAMGEENQTLNLAAQPPAVVLMAGLQGAGKTTSVGKLGKFLREKHKKKVLVVSADVYRPAAIKQLETLAEQVGVDFFPSDVGQKPVDIVNAALKEAKLKFYDVLLVDTAGRLHVDEAMMDEIKQVHASINPVETLFVVDAMTGQDAANTAKAFNEALPLTGVVLTKVDGDARGGAALSIRHITGKPIKFLGVGEKTEALEPFHPDRIASRILGMGDVLSLIEDIESKVDRAQAEKLASKLKKGDGFDLNDFLEQLRQMKNMGGMASLMGKLPGMGQIPDNVKSQMDDKVLVRMEAIINSMTMKERAKPEIIKGSRKRRIAAGCGMQVQDVNRLLKQFDDMQRMMKKMKKGGMAKMMRSMKGMMPPGFPGR | failed
MFDQYRKTILAGAVALTCGLTAASTFAAGFQPAQPAGKLGAVVVDPYGNAPLTALVELDSHIISDVKVTVHGKGEKGVPVTYTVGKESLETYDGIPIFGLYQKFANNVTVEYKENGKAMKDDYVVQTSAIVNHYMDNRSISDLQQTKVIKVAPGFEDRLYLVNTHTFTPQGAEFHWHGEKDKNAGILDAGPAGGALPFDIAPYTFVVDTQGEYRWWLDQDTFYDGHDMNINKRGYLMGIRETPRGTFTAVQGQHWYEFDMMGQILADHKLPRGFLDASHESIETVNGTVLLRVGKRVTAKKTAYMFILFVTKSLRSISLAALEHHHHHH | failed
MFDQYRKTILAGAVALTCGLTAASTFAAGFQPAQPAGKLGAVVVDPYGNAPLTALVELDSHIISDVKVTVHGKGEKGVPVTYTVGKESLETYDGIPIFGLYQKFANNVTVEYKENGKAMKDDYVVQTSAIVNHYMDNRSISDLQQTKVIKVAPGFEDRLYLVNTHTFTPQGAEFHWHGEKDKNAGILDAGPAGGALPFDIAPYTFVVDTQGEYRWWLDQDTFYNGHDMNINKRGYLMGIRETPRGTFTAVQGQHWYEFDMMGQVLADHKLPRGFLDASHESIETVNGTVLLRVGKRDYRKEDGIHVHTIRDQIIEVDKSGRVVDVWDLTKILDPMRDALLGALDAGAVCVNVDLAHAGQQAKLEPDTPYGDALGVGAGRNWAHVNSIAYDAKDDSIILSSRHQGIVKIGRDKQVKWILAPSKGWNKQLASKLLKPVDDHGKPLTCDENGKCKDTDFDFTYTQHTAWLSSKGTLTVFDNGDGRGLEQPALPTMKYSRFVEYKIDEKKGTVQQVWEYGKERGYDFYSPITSVVEYQKDRDTMFGFGGSINLFDVGKPTVGKLNEIDYKTKEVKVEIDVLSDKPNQTHYRALLVHPTQMFK | failed
